{
  "source": "paper PMC6692024",
  "key": {"[1]": {"system": "GST-DEK WT (Homo sapiens)", "assay": "EMSA (agarose)", "conditions": "20 mM Hepes-KOH pH 7.6, 100 mM NaCl, 10 mM NaHSO3, 1 mM EDTA, 1 ug/ml BSA; 30 ul, 1 h at 37 C; 0.6% agarose gel in TBE. PAR overlay assays (poly(ADP-ribose) …); scale: DEK:DNA molar ratio at first detectable shift"}, "[2]": {"system": "GST-DEK PBD2-Mut2 (Homo sapiens)", "assay": "EMSA (agarose)", "conditions": "only slightly reduced; indistinguishable from WT at higher molar ratios; 20 mM Hepes-KOH pH 7.6, 100 mM NaCl, 10 mM NaHSO3, 1 mM EDTA, 1 ug/ml BSA; 30 ul, 1 h at 37 C; 0.6% agarose gel in TBE. PAR overlay assays (poly(ADP-ribose) …); scale: DEK:DNA molar ratio at first detectable shift"}},
  "data": [
    {"substance": "plasmid DNA (unnamed)", "values": [
      {"measurement": "binding signal", "setting": "[1]", "result": 84},
      {"measurement": "binding signal", "setting": "[2]", "result": 112}
    ]}
  ]
}
